In patent US20190330320A1 (H LUNDBECK A S, published 2019):

Key:
[1] = molecular target: T1, pathological hyperphosphorylated tau from human Alzheimer's disease brain (AD-P3 antigens) (human, UniProt P10636 2-758, hyperphosphorylated; phosphoserine at 396); experiment: binding to tau isolated from diseased and healthy brains
T1 construct: Brain-derived material with a mixture of tau isoforms and aggregates; Also used for tangles stained in AD brain sections and for the S1, S1p and P3 fractions and lysates of AD brain; also called P3 tau isolated from human AD brains

[2] = molecular target: T2, P-S396 Tau in Alzheimer brain extracts (human, UniProt P10636 2-758, phosphoserine at 396); experiment: immunodepletion of AD brain extract, P-S396 western blot
T2 construct: Brain-derived; Defined by the western blot signal for P-S396; also called S-P396
Description: FIG. 16. Quantification of P-S396 Tau western blot signal after immunodepleting Alzheimers diseased brain extracts using different amounts of hC10-2 variants N32S, N32Q, N32S_A101T, N32Q_ A101T, N32Q_D55E and N32S_ D55E.
Samples were boiled in 1×LDS loading buffer and 100 mM DTT. A volume corresponding to 3 μl of extracts were loaded on a 4-12% Bis-Tris NuPAGE Gel (LifeTech Novex). After electrophoresis, the proteins were blotted over to a ImmobilonFL PVDF membrane ([…], IPFL10100, Millipore). The membrane was blocked with SEA blocking buffer (Prod#37527, Thermo). Tau and P-tau levels were assessed in the samples using Tau5 (Abcam ab80579, 1:2000) mouse C10-2 (1 μg/ml), P-5199/202 (Invitrogen 44768 G, 1:1000), P-5422 (Abcam ab79415, 1:750), human IPN (1 μg/ml). Gapdh and actin were used as loading controls (Abcam ab9484, 1:2000, Sigma A5441, 1:20000). Secondary fluorophore conjugated IgG antibodies was used (IRDye 800CW Goat anti-Human, IRDye 800CW, Goat anti-rabbit, IRDye 680 Goat anti-mouse, LI-COR biosciences) and the signal was quantified using Odyssey CLx and Image studio software (LI-COR biosciences). Quantification of individual bands as well as signal in whole lanes was done and from this sigmoidal dose-response curves were plotted and when possible max effect and EC50 values were estimated.

[3] = molecular target: T3, Antibody C10-2 (humanized C10-2); experiment: fluid phase peptide inhibition of antibody binding to peptide-coated MSD wells
T3 construct: also called human C10-2; hC10-2
Description: (§1) FIG. 2. Peptide inhibition assay illustrating apparent affinity hC10-2 and related C10-2 variants.
(§2) Plates were washed 5 times in (PBS, 0.1% BSA, 0.1% NP40) and anti-human total Tau (MSD sulfo tagged 1:50) was added to detect bound antibody which reflect non-inhibited free antibody.

[4] = molecular target: Antibody N32S, A101T (hC10-2_N32S_A101T); experiment: as above
Description: as §1, §2

[5] = molecular target: T4, Antibody N32S (hC10-2_N32S); experiment: as above
T4 construct: Variant of humanized C10-2 with light chain N32S; also called hC10-2_N325; C10-2_N325
Description: as §1, §2

T2 sequence (P10636 other isoform, or with tags, fused parts or gaps limits assumed): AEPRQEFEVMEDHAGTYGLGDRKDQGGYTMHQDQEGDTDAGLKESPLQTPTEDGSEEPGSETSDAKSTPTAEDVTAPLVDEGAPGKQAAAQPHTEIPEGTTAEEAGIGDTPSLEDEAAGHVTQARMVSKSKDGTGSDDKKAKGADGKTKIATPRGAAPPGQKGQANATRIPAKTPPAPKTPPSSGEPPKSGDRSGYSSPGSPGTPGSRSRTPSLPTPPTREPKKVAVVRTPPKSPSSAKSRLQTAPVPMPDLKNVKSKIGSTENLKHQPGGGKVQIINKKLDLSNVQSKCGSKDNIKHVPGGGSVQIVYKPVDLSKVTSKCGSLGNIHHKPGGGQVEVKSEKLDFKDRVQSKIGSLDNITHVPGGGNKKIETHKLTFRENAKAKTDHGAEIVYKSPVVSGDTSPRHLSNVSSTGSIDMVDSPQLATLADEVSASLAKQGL
T1 sequence (P10636 other isoform, or with tags, fused parts or gaps limits assumed): as above

B1: IPN002 (antibody, V domains shown)
VH: EVHLVESGGALVKPGGSLKLSCAASGFSFSKYGMSWVRQTPDKRLEWVATISSSGSRTYYPDSVKGQFTISRDNAKNTLYLQMSSLKSEDTAMYYCSISWDGAMDYWGQGTSVTVSS
VL: DVLMTQTPLSLPVSLGDQASISCKSSQSIVHSNGNTYLEWYLQKPGQSPKLLVYKVSNRFSGVPDRFSGSGSGTDFTLKISRVEAEDLGTYYCFQGSLVPWAFGGGTKLEIK
**Q.** Which “AD/ctrl (binding to tau from AD brain over tau from healthy control brain)” value [1] does the source give for B1 here?
**A.** The value was 3 ratio.

B2: Antibody N32Q (hC10-2_N32Q) (antibody, human IgG1, kappa, V domains shown)
VH: QVQLVQSGAEVVKPGASVKISCKASGYTFTDRTIHWVRQAPGQGLEWIGYIYPGDGSTKYSQKFQGRATLTADTSASTAYMELSSLRSEDTAVYYCARRGAMDYWGQGTSVTVSS
VL: DVQMTQSPSSLSASVGDRVTMTCQASQDTSIQLNWFQQKPGKAPKLLIYGASNLETGVPSRFSGSRSGTDFTLTISSLQPEDMATYYCLQHTYLPFTFGSGTKLEIKR
**Q.** With B2 as the binder, how does the “percent decrease in the S-P396 signal at 75 ng antibody” value (from here on “percent decrease in the S-P396 signal”) [2] read?
**A.** Its value is no less than 28%.

B3: hC10-2 variant N32Q_D55E (antibody, human IgG1, kappa, V domains shown)
VH: QVQLVQSGAEVVKPGASVKISCKASGYTFTDRTIHWVRQAPGQGLEWIGYIYPGEGSTKYSQKFQGRATLTADTSASTAYMELSSLRSEDTAVYYCARRGAMDYWGQGTSVTVSS
VL: DVQMTQSPSSLSASVGDRVTMTCQASQDTSIQLNWFQQKPGKAPKLLIYGASNLETGVPSRFSGSRSGTDFTLTISSLQPEDMATYYCLQHTYLPFTFGSGTKLEIKR
notes: Chains are put together from the variant names: light chain N32Q and heavy chain D55E
**Q.** Which “percent decrease in the S-P396 signal” value [2] does the source give for B3 here?
**A.** The value was 16%.

B4: hC10-2 variant N32S_D55E (antibody, human IgG1, kappa, V domains shown)
VH: QVQLVQSGAEVVKPGASVKISCKASGYTFTDRTIHWVRQAPGQGLEWIGYIYPGEGSTKYSQKFQGRATLTADTSASTAYMELSSLRSEDTAVYYCARRGAMDYWGQGTSVTVSS
VL: DVQMTQSPSSLSASVGDRVTMTCQASQDTSISLNWFQQKPGKAPKLLIYGASNLETGVPSRFSGSRSGTDFTLTISSLQPEDMATYYCLQHTYLPFTFGSGTKLEIKR
notes: Chains are put together from the variant names: light chain N32S and heavy chain D55E; also called C10-2_N32S D55E
**Q.** B4 was tested. Which “percent decrease in the S-P396 signal” value [2] did it give?
**A.** Its value is no less than 28%.

B5: Antibody N32Q, A101T (hC10-2_N32Q_A101T) (antibody, human IgG1, kappa, V domains shown)
VH: QVQLVQSGAEVVKPGASVKISCKASGYTFTDRTIHWVRQAPGQGLEWIGYIYPGDGSTKYSQKFQGRATLTADTSASTAYMELSSLRSEDTAVYYCARRGTMDYWGQGTSVTVSS
VL: DVQMTQSPSSLSASVGDRVTMTCQASQDTSIQLNWFQQKPGKAPKLLIYGASNLETGVPSRFSGSRSGTDFTLTISSLQPEDMATYYCLQHTYLPFTFGSGTKLEIKR
**Q.** B5 was tested. Which “percent decrease in the S-P396 signal” value [2] did it give?
**A.** Its value is no less than 28%.

B6: HJ8.5 (antibody, V domains shown)
VH: EVKVEESGGGLVQPGGSMKLSCVVSGFTFSNYWVNWVRQSPEKGLEWVAQIRLKSDNYATHYEESVKGRFTISRDDSKSSVYLQMNNLRAEDSGIYYCTNWEDYWGQGTTLTVSS
VL: DIVLTQSPASLAVSLGQRATISCRASQSVSTSRYSYIHWYQQKPGQPPKLLIKYASNLESGVPARFSGSGSGTDFTLNIHPLEEEDAATYYCHHSWEIPLTFGAGTKLELK
**Q.** Which “AD/ctrl (binding to tau from AD brain over tau from healthy control brain)” value [1] does the source give for B6 here?
**A.** Its value is 3 ratio.

B7: Ptau (P396) 386-408 peptide (peptide)
peptide: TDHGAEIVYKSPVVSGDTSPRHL
modifications: phosphoserine at 396 (tau numbering)
**Q.** Which IC50 [3] does the source give for B7 here?
**A.** Its IC50 is 24 nM.

**Q.** And the IC50 [4]?
**A.** Its IC50 is 34 nM.

**Q.** And the IC50 [5]?
**A.** Its IC50 is 50 nM.
